{"source": "patent US20080118512A1", "about": "(DELENEX THERAPEUTICS, published 2008)", "binders": {"B1": {"name": "2.11 (scFv)", "scFv (VL-linker-VH)": "QSVLTQPPSVSAAPGQKVTISCSGSTSNIGDNYVSWYQQLPGTAPQLLIYDNTKRPSGIPDRFSGSKSGTSATLGITGLQTGDEADYYCATWDNDKWGVVFGGGTKLEVLGGGGGSGGGGSGGGGSSGGGSEVQLVESGGGLVQPGGSLRLSCAASGFTFSSYAMSWVRQAPGKGLEWVSAIRTDSKEQYYADSVKGRFTISRDNSKNTLYLQMNSLRAEDTAVYYCARDAWLDVLSDGFDYWGQGTLVTVSS", "notes": "One of the seven improved scFvs (group m4); The full chain is assembled from ESBA521 with its VH CDR2 exchanged; also called scFv 2.11"}, "B2": {"name": "4.12 (scFv)", "scFv (VL-linker-VH)": "B1 scFv (VL-linker-VH) with R183N, D185R, S186G, K187Q, E188N, Q189E", "notes": "One of the seven improved scFvs (group m4); The full chain is assembled from ESBA521 with its VH CDR2 exchanged"}, "B3": {"name": "33.11 (scFv)", "scFv (VL-linker-VH)": "B1 scFv (VL-linker-VH) with R183N, D185G, S186G, K187G, E188S, Q189T", "notes": "One of the seven improved scFvs (group m4); The full chain is assembled from ESBA521 with its VH CDR2 exchanged; also called scFv 33.11"}, "B4": {"name": "100.2 (scFv)", "scFv (VL-linker-VH)": "B1 scFv (VL-linker-VH) with R183K, S186G, K187N, E188H, Q189K", "notes": "as for B2"}, "B5": {"name": "265.1 (scFv)", "scFv (VL-linker-VH)": "B1 scFv (VL-linker-VH) with R183N, T184M, D185K, S186G, K187N, E188D, Q189R", "notes": "as for B2"}, "B6": {"name": "43.2 (scFv)", "scFv (VL-linker-VH)": "QSVLTQPPSVSAAPGQKVTISCSGSTSNIGDNYVSWYQQLPGTAPQLLIYDNTKRPSGIPDRFSGSKSGTSATLGITGLQTGDEADYYCATWDNDKWGVVFGGGTKLEVLGGGGGSGGGGSGGGGSSGGGSEVQLVESGGGLVQPGGSLRLSCAASGFTFSSYAMSWVRQAPGKGLEWVSAIRTNSKEYYADSVKGRFTISRDNSKNTLYLQMNSLRAEDTAVYYCARDAWLDVLSDGFDYWGQGTLVTVSS", "notes": "as for B2"}}, "note": "Positions count from the first letter of the chain named.", "data": [{"molecular_target": "T1, human ALK epitope peptide (amino acids 391-406 of the ALK protein) (human)", "T1 construct": "In the yeast two-hybrid screen it was a C-terminal fusion to LexA; also called Alk LBD peptide; Alk LBD", "T1 peptide": "GRIGRPDNPFRVALEY", "experiment": "ELISA; the coated antigen is not named on the sheet or in the legend, taken as the ALK epitope peptide", "values": [{"binder": "B1", "binding result": "binds"}, {"binder": "B2", "binding result": "binds"}, {"binder": "B3", "binding result": "binds"}, {"binder": "B4", "binding result": "binds"}, {"binder": "B5", "binding result": "binds"}, {"binder": "B6", "binding result": "binds"}]}]}
